Laboratory results as given in the supplement of paper PMC9170038.

Test system: MS2 coat protein
Experiment: apparent KD of MS2 coat protein; designed switch direction (-1 OFF switch, 1 ON switch): -1; higher = weaker reporter binding
How it was run: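 The reported apparent KD is a per-design median over clusters, from curve fits of normalised cluster fluorescence. Protein titrations used SNAP-549-labelled MS2 coat protein, doubled from 0.7 or 1.5 nM to 3 µM, in Tris-HCl pH 7.5 buffer with KCl, MgCl2, BSA, DTT, tRNA and Tween-20, with no input, 200 uM small-molecule ligand, or an oligonucleotide input. The RNA switches were transcribed on Illumina chips by stalled E. coli RNA polymerase.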

[1] = input ligand: microRNA oligo, concentration not stated
[2] = Eterna round: R95, input ligand: microRNA oligo, concentration not stated
[3] = Eterna round: R95, input ligand: FMN 200 uM
[4] = Eterna round: R95, input ligand: none

Sequence | apparent KD of MS2 coat protein (input ligand: FMN 200 uM) | apparent KD of MS2 coat protein (input ligand: none) | further results
UAUUAGCAAGCCAAUGGGUACAUGAGGAUCACCCAUGUGCUCGUCUUAUAAGGUACUGUGACGAAAGUCACGGUACC [mod--Eli10] (Eterna round: R97, puzzle: Sensor, turn-off variant 1) | 16.7 nM | 17.7 nM | 
UAUUAGCAAGCGAGAUCCCACAUGAGGAUCACCCAUGUGCUCGUCUUAUAUAAGGUACUGUACGAAAGUACGGUACC [Sensor 3, v1 - 91 v6] (Eterna round: R97, puzzle: Sensor, turn-off variant 1) | 16.6 nM | 16.2 nM | 
UAUUAGCAAGCGAGAUCUCACAUGAGGAUCACCCAUGUGCUCGUCUUAUAAGGUACUGUGACGAGAGUCACGGUACC [Mat - Sensor, turn-off var - Eli Mod - D37] (Eterna round: R97, puzzle: Sensor, turn-off variant 1) | 13 nM | 14.1 nM | 
UAUUAGCAAGUAAGAUCCCACAUGAGGAUCACCCAUGUGCUCGUCAUAUCAGGUACGGAGCGGAAACUCACGGUACG [Sensor-V1 #87] (Eterna round: R97, puzzle: Sensor, turn-off variant 1) | 209 nM | 351 nM | 
UAUUAGCAAGUGAGAUCCCACAUGAGGAUCACCCAUGUGCUCGUCUUAUAAGGUACUGUGACGAUAGUCACGGUACC [Mat - Sensor, turn-off var - Eli Mod - D1] (Eterna round: R97, puzzle: Sensor, turn-off variant 1) | 49.9 nM | 49 nM | 
UAUUAGCAAGUGAGGUCCCACAUGAGGAUCACCCAUGUGCUCGUCUUAUAAGGUACUGUGACGAGAGUCACGGUACC [Mat - Sensor, turn-off var - Eli Mod - D52] (Eterna round: R97, puzzle: Sensor, turn-off variant 1) | 40.2 nM | 44.5 nM | 
UAUUAUCAAGCAAGAUCCCACAUGAGGAUCACCCAUGUGCUCGUCUUAUUUCCGGAAUUAUUGGGCUCUCGUCUAAU [JR_STOV1_Sub093] (Eterna round: R97, puzzle: Sensor, turn-off variant 1) | 90.1 nM | 78.2 nM | 
UAUUAUCAAGCAAGAUCCCACAUGAGGAUCACCCAUGUGCUCGUCUUAUUUCUGUCCUUAUUGUUCUCUCGUCUAAU [JR_STOV1_v2_Sub096] (Eterna round: R97, puzzle: Sensor, turn-off variant 1) | 41.8 nM | 39.9 nM | 
UAUUAUCAAGCUAGAUCCCACAUGAGGAUCACCCAUGUGCUCGUCUUAUUUCCGGAAUUAUUGGGCUCUCGUCUUUU [JR_STOV1_Sub092] (Eterna round: R97, puzzle: Sensor, turn-off variant 1) | 235 nM | 238 nM | 
UAUUGGCUAGGAUAUCCGGCUGGCGACAUGAGGAUCACCCAUGUGGACUCUGGUUGUCUUGGAGAAGGAGCAUGCG [EX5 B.19] (Eterna round: R97, puzzle: Exclusion 5) | 206 nM | 138 nM | 
UAUUUACAUGAGGAUCACCCAUGUCAGGAUAUGCGUCUAUCGUCGAAAGACGAUAGUCGCAGAAGGGACAAUAU [LRO-Excl01-22 mod derived from EliFisker 4.24] (Eterna round: R97, puzzle: Exclusion 1) | 100 nM | 48.9 nM | 
UAUUUACAUGAGGAUCACCCAUGUCAGGAUAUGUUUCUAUCGUCGAAAGACGAUAGUUGCAGAAGGGACAAUAU [LRO-Excl01-25 mod derived from EliFisker 4.24] (Eterna round: R97, puzzle: Exclusion 1) | 94.1 nM | 48.5 nM | 
UAUUUGUCAGGAUAUGAGUCGUAGAACAAUAGUACUACGUCUCAGAAGGGACAUGAGGAUCACCCAUGUGCCUC [Fiskers Ex 4 Super Stable 44 mod 29] (Eterna round: R96, puzzle: Exclusion 4) | 276 nM | 28.9 nM | apparent KD of MS2 coat protein [1]: 24.3 nM
UAUUUGUCAGGAUAUGAGUCGUAGAACAAUAGUACUACGUCUCAGAAGGGACAUGAGGAUCACCCAUGUGCCUC [Fiskers Ex 4 Super Stable 44 mod 29] (puzzle: Exclusion 4) |  |  | apparent KD of MS2 coat protein [2]: 25.5 nM
UCAACCAGAGGAUAUGCGCAUAGAUCAGACUUUGUUUCUUAACAUGAGGAUCACCCAUGUAGAAGGCUGUAACC [Ex2 #77] (Eterna round: R97, puzzle: Exclusion 2) | 20.3 nM | 19.8 nM | 
UCAAGACAUGAGGAUCACCCAUGUCAGGAUAUCUAGGUUCGCUAUUUCAUUGUUAACGAGAGAAGGGACAUGAU [EX1 C.13] (Eterna round: R97, puzzle: Exclusion 1) | 22.9 nM | 18 nM | 

Sequence | apparent KD of MS2 coat protein (input ligand: FMN 200 uM) | apparent KD of MS2 coat protein (input ligand: none) | further results
UCACGGGACUGAGGAUAUACAUCAACCAUGGUUGUAGAAGGCAGAAGGUUGGAUCAUAUACUAAACAUGAGGAUCACCCAUGUU [JR_ExcNG1_Sub030] (Eterna round: R96, puzzle: Exclusion NG 1) | 23.6 nM | 20.7 nM | apparent KD of MS2 coat protein [1]: 19.9 nM
UCAGACAUGAGGAUCACCCAUGUGUGACCCUCCUGUCUCAGUCAGGAUAUACUUUUUCAAACUUAGUAGAAGGGACAACAAAAC [Oronerused] (Eterna round: R96, puzzle: Exclusion NG 3) | 37.8 nM | 61.4 nM | apparent KD of MS2 coat protein [1]: 27.8 nM
UCAGGUCGGUAGGAUAUCGACGGGAAAAGCCCACGAGAAGGACUGACAUGAGGAUCACCCAUGUGAGCGUAACC [EX6 B.1] (Eterna round: R97, puzzle: Exclusion 6) | 37.9 nM | 101 nM | 
UCAUACGGUGAGGAUAUCUCCGCUAAAGUGUGUAGAGAAGGCGCUACAUGAGGAUCACCCAUGUUUAUGGGCAG [Ex-6 Malc#12] (Eterna round: R96, puzzle: Exclusion 6) |  |  | apparent KD of MS2 coat protein [1]: 271 nM
UCAUACGGUGAGGAUAUCUCCGCUAAAGUGUGUAGAGAAGGCGCUACAUGAGGAUCACCCAUGUUUAUGGGCAG [Ex-6 Malc#12] (puzzle: Exclusion 6) |  |  | apparent KD of MS2 coat protein [3]: 52.9 nM; apparent KD of MS2 coat protein [2]: 347 nM; apparent KD of MS2 coat protein [4]: 443 nM
UCAUACGGUGAGGAUAUCUCCGUUAAAGUAUGUAGAGAAGGCGCUACAUGAGGAUCACCCAUGUUUGUGGGCAG [Ex-6 Malc#10] (puzzle: Exclusion 6) |  |  | apparent KD of MS2 coat protein [2]: 323 nM
UCAUGGAAGCAGGAUAUGCUUGUUUAAUUGUUUGCAGAAGGGCUAACAUGAGGAUCACCCAUGUAAGAGGUCUA [JR_E6_Sub063] (Eterna round: R96, puzzle: Exclusion 6) | 59.6 nM | 72.5 nM | apparent KD of MS2 coat protein [1]: 53.3 nM
UCAUGGAAGCAGGAUAUGCUUGUUUAAUUGUUUGCAGAAGGGCUAACAUGAGGAUCACCCAUGUAAGAGGUCUA [JR_E6_Sub063] (puzzle: Exclusion 6) |  |  | apparent KD of MS2 coat protein [2]: 35.3 nM
UCAUGUCCUGAGGAUAUGCAGCGGAUAAACGCAGCAGAAGGCAGGACAUGAGGAUCACCCAUGUGUGCCUUCUA [Exclusion 6 Mod5 of JL of Mod of Letion by ViennaUCT] (Eterna round: R97, puzzle: Exclusion 6) | 18.3 nM | 190 nM | 
UCAUGUCCUGAGGAUAUGUAGCGGAUAAACGCAACAGAAGGCAGGACAUGAGGAUCACCCAUGUGCGCCUUUCA [Exclusion 6 Mod2 of JL of Mod of Letion by ViennaUCT] (Eterna round: R97, puzzle: Exclusion 6) | 26.7 nM | 84.5 nM | 
UCAUGUUUAGAGGAUAUGAUUACUCUAGAGUGAUCAGAAGGCUAGACAUGAGGAUCACCCAUGUCAGAACAUGU [Exclusion 6 - B - 17:a] (puzzle: Exclusion 6) |  |  | apparent KD of MS2 coat protein [2]: 24.5 nM
UCCAGUAUAUGGAGAUUUUACAUGAGGAUCACCCAUGUUGGGACAGCUUUUUGCUUGUCUUAUCCUACUUCGUGUGU [Design #4] (Eterna round: R97, puzzle: Sensor, turn-off variant 1) | 51 nM | 56.3 nM | 
UCCGAACAUGAGGAUCACCCAUGUGAGGAUAUCCCGAGAUUAAAUGCCGCAAGAAGGCGGAGAAGGCGCAUGGG [Biditiinen] (puzzle: Exclusion 1) |  |  | apparent KD of MS2 coat protein [3]: 20.6 nM; apparent KD of MS2 coat protein [2]: 17.3 nM; apparent KD of MS2 coat protein [4]: 19.5 nM
UCCGGACAUGAGGAUCACCCAUGUCAGGAUAUACCCGAGGCAGCAAACACGCUAGCCAGUAGAAGGGACAUGGU [Geenma] (Eterna round: R97, puzzle: Exclusion 1) | 18.3 nM | 20.7 nM | 
UCCGUUUGAGGAUAUAUGUAGACAAACAUGAGGAUCACCCAUGUCGGGAUCGAAAUGUCCGUAGAAGGCAAACUGG [Eternabot (L2) Solution 13] (Eterna round: R97, puzzle: Exclusion 5) | 65.2 nM | 22.9 nM | 
